In the supplement of paper PMC10899765:

What was measured:
Conditions in all cases: 20 nM; 72 h
[1] = tested on: MCF10A; experiment: 5+ nucleoli phenotype percent effect (relative to siNT 0% and siKIF11 100%); higher = more cells with five or more nucleoli
Protocol: (§1)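 After 72 h, cells were fixed and stained with Hoechst and anti-fibrillarin, and nucleoli per nucleus were counted with CellProfiler. Values are plate-adjusted percent effect for the one-nucleolus and 5+ nucleoli phenotypes, normalised to siNT (0%) and to the positive controls siNOL11 or siKIF11 (100%), as the mean of biological triplicates. Percent viability is the nuclei count relative to siNT.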

[2] = tested on: MCF10A; experiment: percent viability (nuclei count relative to siNT); higher = more viable cells
Protocol: as §1

[3] = tested on: MCF10A; experiment: one-nucleolus phenotype percent effect (relative to siNT 0% and siNOL11 100%); higher = more cells with one nucleolus (ribosome biogenesis inhibition)
Protocol: as §1

Sequence | 5+ nucleoli phenotype percent effect [1] [%] | percent viability [2] [%] | one-nucleolus phenotype percent effect [3] [%]
UGUGAUAUCAUGGUUCCUGGGA [hsa-miR-3689a-5p] | -5.22 | 37.9 | 6.87
UAGGUAGAGUGUGAGGAGGAGGUC [hsa-miR-6831-5p] | 27.5 | 53.8 | -21
CCUCAAAUGUGGAGCACUAUUCU [hsa-miR-372-5p] | 77.2 | 140 | -27.9
UAGCCCCCAGGCUUCACUUGGCG [hsa-miR-3943] | -18.2 | 19.1 | 8.41
UGGGGAAGGCUUGGCAGGGAAGA [hsa-miR-6780b-5p] | -35.6 | 25.6 | 38
UGAGGGUGUCAGCAGGUGACG [hsa-miR-6804-5p] | 0.774 | 11.7 | 19.5
CGCGCGGCCGUGCUCGGAGCAG [hsa-miR-4479] | -37.9 | 34.8 | 54.5
CAGGGCCAGGCACAGAGUAAG [hsa-miR-6895-5p] | 0.712 | 41.8 | 13.8
ACAGACUUGCUGUGAUGUUCA [hsa-miR-499b-5p] | -7.28 | 35.2 | 2.65
AAUGGCGCCACUAGGGUUGUG [hsa-miR-652-3p] | 4.15 | 58.1 | 7.39
CCCAAUACACGGUCGACCUCUU [hsa-miR-323b-3p] | 68.7 | 77.6 | -23.7
UACCUGGGAGACUGAGGUUGGA [hsa-miR-7851-3p] | 24.6 | 61.5 | -15.4
UAUACAAGGGCAAGCUCUCUGU [hsa-miR-381-3p] | 3.97 | 90.7 | -13.7
UUAUCAGAAUCUCCAGGGGUAC [hsa-miR-361-5p] | -4.16 | 62.4 | -9.14
UCCCUCGCCUUCUCACCCUCAG [hsa-miR-6803-3p] | 25.3 | 58.1 | -18.8
CUGGCAGGGGGAGAGGUA [hsa-miR-7150] | 0.85 | 43.9 | 46.7
AGACUGACCUUCAACCCCACAG [hsa-miR-6855-3p] | -20.8 | 75.7 | -4.32
GGAGGUUGGGAAGGGCAGAG [hsa-miR-6086] | 0.449 | 69.1 | -8.13
UUUGGUCCCCUUCAACCAGCUG [hsa-miR-133a] | -24.8 | 34.5 | 20.5
GGCUUUCUAGUCUCAGCUCUCC [hsa-miR-3160-5p] | 38.5 | 110 | -16.4

Sequence | 5+ nucleoli phenotype percent effect [1] [%] | percent viability [2] [%] | one-nucleolus phenotype percent effect [3] [%]
AGACACAUUUGGAGAGGGAACC [hsa-miR-642a-3p] | 16 | 90.2 | -16.3
UGGCCCUUUGUACCCCUCCAG [hsa-miR-6851-3p] | 54.7 | 49.2 | -21.4
UUAUGGUUUGCCUGGGACUGAG [hsa-miR-584-5p] | 35 | 77.9 | -25.7
UGAGGACAGGGCAAAUUCACGA [hsa-miR-5004-5p] | -12.8 | 36 | 10
AGCAGACUUGACCUACAAUUA [hsa-miR-4771] | 3.81 | 53.6 | -9.9
UUGGGGUGGUCGGCCCUGGAG [hsa-miR-6737-5p] | -19.8 | 7.13 | 48.7
UACUCAGGAGAGUGGCAAUCAC [hsa-miR-510] | -26.8 | 20.5 | 41.9
CAAAGCGCUUCUCUUUAGAGUGU [hsa-miR-518c-3p] | -26.1 | 44.9 | 37.7
CGGGGCCAGAGCAGAGAGC [hsa-miR-6845-5p] | 11.6 | 53.6 | 9.59
AAAGUGCAUCUUUUUAGAGGAU [hsa-miR-519c-3p] | 110 | 119 | -25.5
GAAGGACCUGCACCUUCG [hsa-miR-6816-3p] | -36.7 | 35.3 | 49.8
ACCCCUGCCACUCACUGGCC [hsa-miR-6801-3p] | 1.82 | 62 | -4.08
UAAAUUUCACCUUUCUGAGAAGA [hsa-miR-513c-3p] | -1.66 | 28.5 | 15.7
GGAGGCGCAGGCUCGGAAAGGCG [hsa-miR-3197] | 13.6 | 41.9 | -2.74
AGGGCUUAGCUGCUUGUGAGCA [hsa-miR-27a-5p] | -11.3 | 19.8 | 23.8
CUGGGGGACGCGUGAGCGCGAGC [hsa-miR-4665-5p] | 9.32 | 31.2 | 18.8
GCCCCGGCGCGGGCGGGUUCUGG [hsa-miR-4707-5p] | 42.2 | 116 | -25
UGGCGAUUUUGGAACUCAAUGGCA [hsa-miR-8053] | 6.04 | 36.7 | 4.42
ACCUGAAUUACCAAAAGCUUU [hsa-miR-3140-5p] | 26.3 | 118 | -18.7
GGGUGCGGGCCGGCGGGG [hsa-miR-4466] | 12.7 | 51.3 | -13.2

Sequence | 5+ nucleoli phenotype percent effect [1] [%] | percent viability [2] [%] | one-nucleolus phenotype percent effect [3] [%]
AAGCCUGCCCGGCUCCUCGGG [hsa-miR-596] | -11.4 | 74.8 | -4
UCCCCUGCUCCCUUGUUCCCCAG [hsa-miR-6810-3p] | 4.97 | 35.1 | 3.27
CUACAAAGGGAAGCACUUUCUC [hsa-miR-524-5p] | -38.7 | 41.4 | 17.4
CAGGGCUGGCAGUGACAUGGGU [hsa-miR-4446-3p] | -5.74 | 25.9 | 1.33
AUGGCCAAAACUGCAGUUAUUUU [hsa-miR-548s] | 14.5 | 37.4 | 8.89
ACAUCCUGCUCCACAGGGCAGAGG [hsa-miR-4793-5p] | -0.984 | 52.3 | -10.7
CCUCCGUGUUACCUGUCCUCUAG [hsa-miR-3605-3p] | -3.31 | 92.7 | 0.086
UGAGAACCACGUCUGCUCUGAG [hsa-miR-589-5p] | -4.96 | 88.9 | -14.3
UGCUGAUGGCAGAUGUCGGGUCUG [hsa-miR-8075] | -34.6 | 20.8 | 44.2
AGACACUAUACGAGUCAUAU [hsa-miR-3117-5p] | 12.6 | 120 | 0.975
CAUUAUUACUUUUGGUACGCG [hsa-miR-126-5p] | 12.5 | 88.9 | -14.9
CCACUGCCUAUGCCCCACAG [hsa-miR-6890-3p] | -13.4 | 62.1 | -16.6
UGCCUACUGAGCUGAAACACAG [hsa-miR-24-2-5p] | -9.36 | 46.7 | 7.59
UUGAUCUCGGAAGCUAAGC [hsa-miR-7641] | 6.46 | 82.6 | -20.1
AAAAACUGAGACUACUUUUGCA [hsa-miR-548e] | 40.3 | 140 | -28.9
CUCCUCUGUUUUCUUUCCUAG [hsa-miR-6780a-3p] | -34.9 | 34.4 | 25.3
UAGCCUUCAGAUCUUGGUGUUUU [hsa-miR-3614-3p] | -23.5 | 51.5 | 28.6
UUGGACAGAAAACACGCAGGAA [hsa-miR-4520a-3p] | -25 | 59.1 | -3.29
UCUGACAUCAGUGAUUCUCCUG [hsa-miR-6719-3p] | 20.2 | 115 | -5.44
